Drawing on PMC6927032, this text covers IC50 for 11 substances.

The assay deals with TglB (Pseudomonas syringae). Put plainly: fluorescence polarisation. A general note: Polarisation of emitted light reports the rotation of a fluorescent probe.

Consider TglA I41A (peptide), for which the IC50 (commonly the midpoint of a concentration-inhibition curve) is 32 µM. For TglA F49A (peptide), the IC50 is 4.2 µM. This IC50 lies about 7.6-fold lower than the previous one.

The substance TglA S46A (peptide) showed an IC50 of 11 µM. Compared with the last substance, the IC50 is about 2.6-fold higher. Take TglA D40A (peptide): the IC50 was 15 µM. The IC50 values of the last two substances are within 1.5-fold of each other. The substance TglA K47A (peptide) had an IC50 of 255 µM. In turn, TglA E42A (peptide) showed an IC50 of 10.5 µM.

TglA V48A (peptide) returned an IC50 of 113 µM. TglA V43A (peptide) returned an IC50 of 98 µM. TglA I44A (peptide): the IC50 is 24 µM. Against the preceding substance, the IC50 is about 4.1-fold lower.

TglA E45A (peptide): the IC50 is greater than 300 µM.

Regarding WT TglA (peptide), the IC50 is 8 µM.
